± gives the uncertainty stated by the source.
Experiment: amyloid nucleation score (Sup35N fusion, yeast selection) (log enrichment); library NNK2; higher = more nucleation; inactive = no reads after selection
Summary of the method: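 Libraries of peptides of 20 random codons fused to Sup35N were expressed in psi-negative yeast and induced 24 hours with 100 μM copper sulfate. Selection was 7 days at 30°C on medium lacking adenine and uracil, and plasmid inserts were Illumina-sequenced before and after selection. Nucleation score is the DiMSum log enrichment of output over input reads, centred on the mode score of non-aggregating sequences, and sequences with under 100 input reads were left out.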

Work on CDYWYYIGRRNVEMEHRVTC yielded an amyloid nucleation score of 0.148 ± 1.

QLPFWGWNCMAKLTVTLHSR showed an amyloid nucleation score of 1.22 ± 0.29.

For RMETTKPIRSSGTSITAPNG, the amyloid nucleation score was 1.53 ± 0.53.

Substance AFRVNWYDQNRYVEVKG has an amyloid nucleation score of 0.292 ± 0.4.

For CNHFMTFRWWLVEQAGSMLA, the amyloid nucleation score was 0.044 ± 1.1.

YIGRMVV gave an amyloid nucleation score of 0.306 ± 0.65.

LYLEMMCAIVWQQSYRHNRT gave an amyloid nucleation score of 0.727 ± 0.13.

In the case of SARIGISRFCPHAVSPVITK, the amyloid nucleation score is reported as “inactive”.

For KVYATVDFDLLGQAPTSAMN, the amyloid nucleation score was 4.83 ± 0.091.

Substance VSDNGFFNRYNMTNCRIHGV has an amyloid nucleation score of 0.449 ± 0.57.

Work on AESVCYQMTCIPCLLIFNTV yielded an amyloid nucleation score of 8.966 ± 0.054.

Substance SLWLSEVVCMDTVHQEIIMA has an amyloid nucleation score of -0.163 ± 0.42.

With FKWALFG the amyloid nucleation score was “inactive”.

For VCACKIYKRHTLGSR, the amyloid nucleation score was -0.573 ± 0.76.

For QDMQLVIYWSYKLYQVFLRA, the amyloid nucleation score was -0.357 ± 1.1.

For VFSLCGIYMRGHYSYWCYNK, the amyloid nucleation score was “inactive”.

FVCPFVVCYAGIGGRGGYVM gave an amyloid nucleation score of 0.173 ± 1.1.

With WIFSPGLMDFVEHDNLEWIA the amyloid nucleation score was 0.67 ± 0.44.

Work on VINSLMWKFTVIMRGVMNRI yielded an amyloid nucleation score of 0.12 ± 0.25.

Substance DYCLSSICFLIDVGESFERG has an amyloid nucleation score of 0.171 ± 0.44.

Work on ITYPVESLYNAWSGGPVTDG yielded an amyloid nucleation score of 0.164 ± 0.8.

In the case of TFPSISTFARSLFFVYQVYP, the amyloid nucleation score is reported as -1.13 ± 1.1.

With AGVSLFVHGNL the amyloid nucleation score was 4.45 ± 0.095.

In the case of FRDQGIFIHLWS, the amyloid nucleation score is reported as 0.781 ± 0.44.

RMDVISEKFVWANESNCGVA gave an amyloid nucleation score of 0.362 ± 0.25.

With NMFTETDRILVLFIRCLVDC the amyloid nucleation score was 0.305 ± 1.

For SSSAIHLRFNYCYHCFHSLT, the amyloid nucleation score was 5.08 ± 0.065.

In the case of LRRTSVVIGRVRSSRLCGLR, the amyloid nucleation score is reported as 9.336 ± 0.054.

Substance GYCLSVTSR has an amyloid nucleation score of 0.641 ± 0.74.

Substance IITIYLLAELNSVSVTSTSI has an amyloid nucleation score of 5.138 ± 0.03.

For NSFFGLTVSKEEYLCFFYMF, the amyloid nucleation score was “inactive”.

GWVLI showed an amyloid nucleation score of -0.994 ± 1.1.

GRLYHGVVTCSGRNGINRGS showed an amyloid nucleation score of 2.92 ± 0.19.

With DLSQYDCVNVFALPGWCNNT the amyloid nucleation score was 4.35 ± 0.048.

With QGSKDRSYINKYRDRFCLTD the amyloid nucleation score was -0.304 ± 1.1.

Work on DMCLW yielded an amyloid nucleation score of -0.625 ± 0.33.

YILMHGSHM gave an amyloid nucleation score of 3.73 ± 0.071.

In the case of DVSNLWFTNFCGFWGKYVVK, the amyloid nucleation score is reported as “inactive”.

Work on GVRRRRIRRWLNVSGRYMCE yielded an amyloid nucleation score of 2.38 ± 0.23.

Work on IVGCLGDGVRLL yielded an amyloid nucleation score of -0.563 ± 0.29.

Work on SVKCWVALAPYLGDRKDPVW yielded an amyloid nucleation score of 2.94 ± 0.15.

RQTSLKRL gave an amyloid nucleation score of -0.159 ± 1.

Work on VSSYCIRML yielded an amyloid nucleation score of 0.11 ± 0.76.

GMCLTGSTSVRTNNSPHVSR showed an amyloid nucleation score of 0.803 ± 0.32.

Substance FVYNQWSYRLRYLTVAIRD has an amyloid nucleation score of -0.111 ± 0.56.

Substance SWSCRMEADSGFPAFIGAKK has an amyloid nucleation score of -0.47 ± 1.

In the case of PRCYLVLKFYSQCLFSVHTF, the amyloid nucleation score is reported as “inactive”.

ADFFVLDMWLTYCMKTLFSC showed an amyloid nucleation score of -1.27 ± 0.48.

SSKYYA showed an amyloid nucleation score of -0.131 ± 0.32.

DICVKSRRSRPRV showed an amyloid nucleation score of 0.591 ± 0.51.

With EICLDAITVVPLHGSIRLTV the amyloid nucleation score was 0.764 ± 0.25.

Substance NEIARILEVRIGVEGYGGIF has an amyloid nucleation score of -0.722 ± 0.3.

LFEMC gave an amyloid nucleation score of 0.443 ± 0.26.

For VRLHGLLHANMGKTFMLLLS, the amyloid nucleation score was -0.486 ± 0.56.

Work on YNGRAIEHCQSMVSFRAVSR yielded an amyloid nucleation score of -0.041 ± 0.6.

For SLFTYGVISDHMGNMVPWND, the amyloid nucleation score was -0.352 ± 1.1.

With HHWRGALGFVCWGRFEERWV the amyloid nucleation score was -0.567 ± 0.23.

RLFNTYYSRSFASYGYWLHC gave an amyloid nucleation score of 0.47 ± 0.16.

In the case of YHLKYRGSMGVPCLNTFVWN, the amyloid nucleation score is reported as 5.15 ± 0.055.

SCRLLDSFDPMSRGKSSQRR gave an amyloid nucleation score of -0.003 ± 1.1.

GAFSYEMTRLKALGFWPL showed an amyloid nucleation score of 5.87 ± 0.045.

For PNIIGKLGNLNSLVLC, the amyloid nucleation score was 0.382 ± 0.8.

With LYRFSSLLWLSVSSSCDIV the amyloid nucleation score was “inactive”.

Work on CVILLVIFMLYIYWFSDMFL yielded an amyloid nucleation score of -0.721 ± 0.63.

Substance VWLTMKVAILPCSQRIEKMV has an amyloid nucleation score of 1.47 ± 0.38.

For PSMQVVKRVINFG, the amyloid nucleation score was “inactive”.

With TSWCSIHTVMLYLFLIVCQY the amyloid nucleation score was “inactive”.

Substance MTLMKDCDMNISHSARAKAS has an amyloid nucleation score of 0.255 ± 0.18.

Work on YPPWVSGVMIVMGHLRRCSA yielded an amyloid nucleation score of 1.93 ± 0.43.

Work on LHCRSCGF yielded an amyloid nucleation score of -0.193 ± 0.43.

GVYPICV showed an amyloid nucleation score of 0.416 ± 0.49.

With RVFKDTRRIG the amyloid nucleation score was -0.545 ± 1.

In the case of PELSNDQGYFVDSVKSGKVE, the amyloid nucleation score is reported as -0.036 ± 0.48.

In the case of LFIYLGDQSSNKVKPTHFRE, the amyloid nucleation score is reported as -0.497 ± 0.33.

For AWLWKMFNGTCNRWYINRPL, the amyloid nucleation score was -0.81 ± 0.76.

In the case of GFDGLRVLLNEHNVIAK, the amyloid nucleation score is reported as 0.771 ± 0.47.

Substance SSSLLRSHRVGYVNLVVRED has an amyloid nucleation score of -0.524 ± 0.55.

For LRFPRGLNGNDPGSIAS, the amyloid nucleation score was -0.085 ± 0.79.

YSMGAYTVSMGACA gave an amyloid nucleation score of -1.05 ± 1.1.

In the case of VKFAGWTCSL, the amyloid nucleation score is reported as -0.314 ± 0.62.

In the case of YVFLWWLKFCFGYH, the amyloid nucleation score is reported as “inactive”.

Substance VIIGIFCNSKSS has an amyloid nucleation score of 4.33 ± 0.1.

Substance LCYWCTCR has an amyloid nucleation score of 0.141 ± 0.41.

ARNRSSIKWGRGSDYGFTEL showed an amyloid nucleation score of 0.451 ± 0.65.

For IVRQIASFGRIRDRTRDDEW, the amyloid nucleation score was 3.05 ± 0.13.

For PFACYGFCRM, the amyloid nucleation score was -1.29 ± 0.76.

EWVYFLCSFHPSIDFLNISD showed an amyloid nucleation score of 5.62 ± 0.076.

For LCWFAMLEYVWDGHAVGDSI, the amyloid nucleation score was 4.06 ± 0.061.

Substance TMLFRRFYSFMSTL has an amyloid nucleation score of -0.053 ± 1.

For YFLSGRVSEGSAITIRELSP, the amyloid nucleation score was 2.34 ± 0.091.

With RHTSMSGCMTVIMTGCEIPR the amyloid nucleation score was 1.13 ± 0.39.

Work on TLCRAGLNGPWLNVLRFVPR yielded an amyloid nucleation score of 0.615 ± 0.36.

Substance VVIRCFYGTERNASWLLVCL has an amyloid nucleation score of -0.059 ± 0.24.

In the case of FYFHEACPSRLHHTKSAIGK, the amyloid nucleation score is reported as -0.839 ± 0.78.

In the case of VVMNLMEFMVRVSVLDNAEG, the amyloid nucleation score is reported as 4.47 ± 0.075.

Work on KPHRIENGSTREDEEG yielded an amyloid nucleation score of 0.747 ± 0.31.

SPGIARDLANRILVTIRWVS gave an amyloid nucleation score of 1.25 ± 0.32.

Work on SIYRFDLTYPNRHHCYNVVI yielded an amyloid nucleation score of -0.184 ± 1.1.

Work on LLYTSWLV yielded an amyloid nucleation score of 0.272 ± 0.41.

For FLNDI, the amyloid nucleation score was “inactive”.

For SSMLYTYVRLMNMNNIYVAS, the amyloid nucleation score was 0.737 ± 0.62.

Substance YFELKLKNARVGRFIDWRAT has an amyloid nucleation score of 1.77 ± 0.27.

IENRLWIWSLH showed an amyloid nucleation score of 0.673 ± 0.32.

PFSCITRLQ showed an amyloid nucleation score of 2.48 ± 0.1.

Work on GFCQASSWM yielded an amyloid nucleation score of -0.109 ± 0.76.

For SRYACVRLICQVWPLWVGSG, the amyloid nucleation score was 0.875 ± 0.43.

Substance CRGVNVHDSSW has an amyloid nucleation score of -0.321 ± 0.22.

For NINLA, the amyloid nucleation score was “inactive”.

TPGLCSNL showed an amyloid nucleation score of -1.44 ± 1.

With FIFIMGIFERLH the amyloid nucleation score was -1.54 ± 1.1.

In the case of WFIRIAIMARSFCIIALVPR, the amyloid nucleation score is reported as -1.22 ± 0.47.

NVLSRYYQPYMAPPENKAWD showed an amyloid nucleation score of -0.277 ± 1.

With LEWLFA the amyloid nucleation score was 0.155 ± 1.1.

For NNLLRYSVFNI, the amyloid nucleation score was “inactive”.

KITAGSGVL gave an amyloid nucleation score of 0.904 ± 0.81.

With FYIYGNSCSPYIML the amyloid nucleation score was -0.681 ± 1.

GSSAYITLLHYEILNLRLLC gave an amyloid nucleation score of 4.12 ± 0.079.

LKMCYFLRNKPTQMHVSGVY showed an amyloid nucleation score of 0.04 ± 0.5.

VWVRIQMWYDIMSSASQLYR gave an amyloid nucleation score of 0.446 ± 0.33.

For SQALCDGALYTHFAISSIDR, the amyloid nucleation score was “inactive”.

In the case of WFSDIKSPASLLVSVVVVM, the amyloid nucleation score is reported as 0.272 ± 0.57.

With SYLDILCVRIVSHHCSVSSK the amyloid nucleation score was 0.112 ± 0.46.

With IVDSFTYTDVSTGSYLFG the amyloid nucleation score was -1.42 ± 0.75.

For APNMKSNLYFPEVRLNEGSR, the amyloid nucleation score was 0.714 ± 0.53.

Substance IRDRPHWAGGHLGWPYMWS has an amyloid nucleation score of 4.1 ± 0.1.

Work on LGRLIWTRVSYCMSQINRVR yielded an amyloid nucleation score of 2.23 ± 0.061.

Reference: the supplement of paper PMC12042874
